From PMC5454376 (2017)

B1: Human His-Gαi3 WT [human] / Fluorescein-labelled RGS12 GoLoco peptide (residues 1,185–1,221) [modified: 5,6-carboxyfluorescein coupled to the resin-bound peptide after chain elongation; 5,6-carboxyfluorescein coupled to the resin-bound … (parent complex)
chain 1: MGCTLSAEDKAAVERSKMIDRNLREDGEKAAKEVKLLLLGAGESGKSTIVKQMKIIHEDGYSEDECKQYKVVVYSNTIQSIIAIIRAMGRLKIDFGEAARADDARQLFVLAGSAEEGVMTPELAGVIKRLWRDGGVQACFSRSREYQLNDSASYYLNDLDRISQSNYIPTQQDVLRTRVKTTGIVETHFTFKDLYFKMFDVGGQRSERKKWIHCFEGVTAIIFCVALSDYDLVLAEDEEMNRMHESMKLFDSICNNKWFTETSIILFLNKKDLFEEKIKRSPLTICYPEYTGSNTYEEAAAYIQCQFEDLNRRKDTKEIYTHFTCATDTKNVQFVFDAVTDVIIKNNLKECGLY
chain 2: DEAEEFFELISKAQSNRADDQRGLLRKEDLVLPEFLR
B2: Human His-Gαi3 WT [human] / Fluorescein-labelled GIV peptide (residues 1,671–1,701) [modified: 5,6-carboxyfluorescein coupled to the resin-bound peptide after chain elongation; 5,6-carboxyfluorescein coupled to the resin-bound peptide … (parent complex)
chain 1: B1 chain 1
chain 2: KTGSPGSEVVTLQQFLEESNKLTSVQIKSSS

Variants of: B1
Assay: fluorescence polarisation

| Variant | Kd [nM] |
| --- | --- |
| chain 1 MGCTLSAEDKAAVERSKMIDRNLREDGEKAAKEVKLLLLGAGESGKSTIVKQMKIIHEDGYSEDECKQYKVVVYSNTIQSIIAIIRAMGRLKIDFGEAARADDARQLFVLAGSAEEGVMTPELAGVIKRLWRDGGVQACFSRSREYQLNDSASYYLNDLDRISQSNYIPTQQDVLRTRVKTTGIVETHFTFKDLYFKMFDVGGQRSERKKWIHCFEGVTAIIFCVALSDYDLVLAEDEEMNRMHESMKLFDSICNNKWATETSIILFLNKKDLFEEKIKRSPLTICYPEYTGSNTYEEAAAYIQCQFEDLNRRKDTKEIYTHFTCATDTKNVQFVFDAVTDVIIKNNLKECGLY [chain 1 F259A] | 187 |
| chain 1 MGCTLSAEDKAAVERSKMIDRNLREDGEKAAKEVKLLLLGAGESGKSTIVKQMKIIHEDGYSEDECKQYKVVVYSNTIQSIIAIIRAMGRLKIDFGEAARADDARQLFVLAGSAEEGVMTPELAGVIKRLWRDGGVQACFSRSREYQLNDSASYYLNDLDRISQSNYIPTQQDVLRTRVKTTGIVETHFTFKDLYFKMFDVGGQRSERKKWIHCFEGATAIIFCVALSDYDLVLAEDEEMNRMHESMKLFDSICNNKWFTETSIILFLNKKDLFEEKIKRSPLTICYPEYTGSNTYEEAAAYIQCQFEDLNRRKDTKEIYTHFTCATDTKNVQFVFDAVTDVIIKNNLKECGLY [chain 1 V218A] | 104 |
| chain 1 MGCTLSAEDKAAVERSKMIDRNLREDGEKAAKEVALLLLGAGESGKSTIVKQMKIIHEDGYSEDECKQYKVVVYSNTIQSIIAIIRAMGRLKIDFGEAARADDARQLFVLAGSAEEGVMTPELAGVIKRLWRDGGVQACFSRSREYQLNDSASYYLNDLDRISQSNYIPTQQDVLRTRVKTTGIVETHFTFKDLYFKMFDVGGQRSERKKWIHCFEGVTAIIFCVALSDYDLVLAEDEEMNRMHESMKLFDSICNNKWFTETSIILFLNKKDLFEEKIKRSPLTICYPEYTGSNTYEEAAAYIQCQFEDLNRRKDTKEIYTHFTCATDTKNVQFVFDAVTDVIIKNNLKECGLY [chain 1 K35A] | 152 |
| chain 1 MGCTLSAEDKAAVERSKMIDRNLREDGEKAAKEVKLLLLGAGESGKSTIVKQMKIIHEDGYSEDECKQYKVVVYSNTIQSIIAIIRAMGRLKIDFGEAARADDARQLFVLAGSAEEGVMTPELAGVIKRLWRDGGVQACFSRSREYQLNDSASYYLNDLDRISQSNYIPTQQDVLRTRVKTTGIVETHFTFKDLYFKMFDVGGQRSERKKWIHCFEGVTAIIFCVALSDYDLVLAEDEEMNRMHESMKLFDSICNEKWFTETSIILFLNKKDLFEEKIKRSPLTICYPEYTGSNTYEEAAAYIQCQFEDLNRRKDTKEIYTHFTCATDTKNVQFVFDAVTDVIIKNNLKECGLY [chain 1 N256E] | 314 |

Variants of: B2
Assay: fluorescence polarisation

| Variant | Kd [nM] |
| --- | --- |
| chain 1 MGCTLSAEDKAAVERSKMIDRNLREDGEKAAKEVKLLLLGAGESGKSTIVKQMKIIHEDGYSEDECKQYKVVVYSNTIQSIIAIIRAMGRLKIDFGEAARADDARQLFVLAGSAEEGVMTPELAGVIKRLWRDGGVQACFSRSREYQLNDSASYYLNDLDRISQSNYIPTQQDVLRTRVKTTGIVETHFTFKDLYFKMFDVGGQRSERKKWIHCFEGVTAIIFCVALSDYDLVLAEDEEMNRMHESMKLFDSICNNKWATETSIILFLNKKDLFEEKIKRSPLTICYPEYTGSNTYEEAAAYIQCQFEDLNRRKDTKEIYTHFTCATDTKNVQFVFDAVTDVIIKNNLKECGLY [chain 1 F259A] | 1260 |
| chain 1 MGCTLSAEDKAAVERSKMIDRNLREDGEKAAKEVKLLLLGAGESGKSTIVKQMKIIHEDGYSEDECKQYKVVVYSNTIQSIIAIIRAMGRLKIDFGEAARADDARQLFVLAGSAEEGVMTPELAGVIKRLWRDGGVQACFSRSREYQLNDSASYYLNDLDRISQSNYIPTQQDVLRTRVKTTGAVETHFTFKDLYFKMFDVGGQRSERKKWIHCFEGVTAIIFCVALSDYDLVLAEDEEMNRMHESMKLFDSICNNKWFTETSIILFLNKKDLFEEKIKRSPLTICYPEYTGSNTYEEAAAYIQCQFEDLNRRKDTKEIYTHFTCATDTKNVQFVFDAVTDVIIKNNLKECGLY [chain 1 I184A] | 1910 |
| chain 1 MGCTLSAEDKAAVERSKMIDRNLREDGEKAAKEVKLLLLGAGESGKSTIVKQMKIIHEDGYSEDECKQYKVVVYSNTIQSIIAIIRAMGRLKIDFGEAARADDARQLFVLAGSAEEGVMTPELAGVIKRLWRDGGVQACFSRSREYQLNDSASYYLNDLDRISQSNYIPTQQDVLRTRVKTTGIVETHFTFKDLYFKMFDVGGQRSERKKWIHCFEGATAIIFCVALSDYDLVLAEDEEMNRMHESMKLFDSICNNKWFTETSIILFLNKKDLFEEKIKRSPLTICYPEYTGSNTYEEAAAYIQCQFEDLNRRKDTKEIYTHFTCATDTKNVQFVFDAVTDVIIKNNLKECGLY [chain 1 V218A] | 362 |
| chain 1 MGCTLSAEDKAAVERSKMIDRNLREDGEKAAKEVKLLLAGAGESGKSTIVKQMKIIHEDGYSEDECKQYKVVVYSNTIQSIIAIIRAMGRLKIDFGEAARADDARQLFVLAGSAEEGVMTPELAGVIKRLWRDGGVQACFSRSREYQLNDSASYYLNDLDRISQSNYIPTQQDVLRTRVKTTGIVETHFTFKDLYFKMFDVGGQRSERKKWIHCFEGVTAIIFCVALSDYDLVLAEDEEMNRMHESMKLFDSICNNKWFTETSIILFLNKKDLFEEKIKRSPLTICYPEYTGSNTYEEAAAYIQCQFEDLNRRKDTKEIYTHFTCATDTKNVQFVFDAVTDVIIKNNLKECGLY [chain 1 L39A] | 3080 |
| chain 1 MGCTLSAEDKAAVERSKMIDRNLREDGEKAAKEVKLLLLGAGESGKSTIVKQMKIIHEDGYSEDECKQYKVVVYSNTIQSIIAIIRAMGRLKIDFGEAARADDARQLFVLAGSAEEGVMTPELAGVIKRLWRDGGVQACFSRSREYQLNDSASYYLNDLDRISQSNYIPTQQDVLRTRVKTTGIVETHFTFKDLYFKMFDVGGQRSERKKWIHCFEGVTAIIFCVALSDYDLVLAEDEEMNRMHESMKLFDSICNNKFFTETSIILFLNKKDLFEEKIKRSPLTICYPEYTGSNTYEEAAAYIQCQFEDLNRRKDTKEIYTHFTCATDTKNVQFVFDAVTDVIIKNNLKECGLY [chain 1 W258F] | 1820 |
| chain 1 MGCTLSAEDKAAVERSKMIDRNLREDGEKAAKEVKLLLLGAGESGKSTIVKQMKIIHEDGYSEDECKQYKVVVYSNTIQSIIAIIRAMGRLKIDFGEAARADDARQLFVLAGSAEEGVMTPELAGVIKRLWRDGGVQACFSRSREYQLNDSASYYLNDLDRISQSNYIPTQQDVLRTRVKTTGIVETHFTFKDLYFKMFDVGGQRSERKKWIHCFEGVTAIIFCVALSDYDLVLAEDEEMNRMHESMKLFDAICNNKWFTETSIILFLNKKDLFEEKIKRSPLTICYPEYTGSNTYEEAAAYIQCQFEDLNRRKDTKEIYTHFTCATDTKNVQFVFDAVTDVIIKNNLKECGLY [chain 1 S252A] | 243 |
| chain 1 MGCTLSAEDKAAVERSKMIDRNLREDGEKAAKEVKLALLGAGESGKSTIVKQMKIIHEDGYSEDECKQYKVVVYSNTIQSIIAIIRAMGRLKIDFGEAARADDARQLFVLAGSAEEGVMTPELAGVIKRLWRDGGVQACFSRSREYQLNDSASYYLNDLDRISQSNYIPTQQDVLRTRVKTTGIVETHFTFKDLYFKMFDVGGQRSERKKWIHCFEGVTAIIFCVALSDYDLVLAEDEEMNRMHESMKLFDSICNNKWFTETSIILFLNKKDLFEEKIKRSPLTICYPEYTGSNTYEEAAAYIQCQFEDLNRRKDTKEIYTHFTCATDTKNVQFVFDAVTDVIIKNNLKECGLY [chain 1 L37A] | 478 |
| chain 1 MGCTLSAEDKAAVERSKMIDRNLREDGEKAAKEVKALLLGAGESGKSTIVKQMKIIHEDGYSEDECKQYKVVVYSNTIQSIIAIIRAMGRLKIDFGEAARADDARQLFVLAGSAEEGVMTPELAGVIKRLWRDGGVQACFSRSREYQLNDSASYYLNDLDRISQSNYIPTQQDVLRTRVKTTGIVETHFTFKDLYFKMFDVGGQRSERKKWIHCFEGVTAIIFCVALSDYDLVLAEDEEMNRMHESMKLFDSICNNKWFTETSIILFLNKKDLFEEKIKRSPLTICYPEYTGSNTYEEAAAYIQCQFEDLNRRKDTKEIYTHFTCATDTKNVQFVFDAVTDVIIKNNLKECGLY [chain 1 L36A] | 706 |
| chain 1 MGCTLSAEDKAAVERSKMIDRNLREDGEKAAKEVKLLLLGAGESGKSTIVKQMKIIHEDGYSEDECKQYKVVVYSNTIQSIIAIIRAMGRLKIDFGEAARADDARQLFVLAGSAEEGVMTPELAGVIKRLWRDGGVQACFSRSREYQLNDSASYYLNDLDRISQSNYIPTQQDVLRTRVKTTGIVETHFTFKDLYFKMFDVGGQRSERKKWIHCFEGVTAIIFCVALSDYDLVLAEDEEMNRMHESMKLFDSICNNAWFTETSIILFLNKKDLFEEKIKRSPLTICYPEYTGSNTYEEAAAYIQCQFEDLNRRKDTKEIYTHFTCATDTKNVQFVFDAVTDVIIKNNLKECGLY [chain 1 K257A] | 870 |

Variants of: B2
Assay: fluorescence polarisation
Remark: another data set of the same source

| Variant | Kd [nM] |
| --- | --- |
| chain 1 MGCTLSAEDKAAVERSKMIDRNLREDGEKAAKEVKLLLLGAGESGKSTIVKQMKIIHEDGYSEDECKQYKVVVYSNTIQSIIAIIRAMGRLKIDFGEAARADDARQLFVLAGSAEEGVMTPELAGVIKRLWRDGGVQACFSRSREYQLNDSASYYLNDLDRISQSNYIPTQQDVLRTRVKTTGIVETHFTFKDLYFKMFDVGGQRSERKKWIHCFEGVTAIIFCVALSDYDLVLAEDEEMNRMHESMKLFDSICNNKWFTETSIILFLNKKDLFEEKIKRSPLTICYPEYTGSNTYEEAAAYIQCQFEDLNRAKDTKEIYTHFTCATDTKNVQFVFDAVTDVIIKNNLKECGLY [chain 1 R313A] | 800 |
| chain 1 MGCTLSAEDKAAVERSKMIDRNLREDGEKAAKEVKLLLLGAGESGKSTIVKQMKIIHEDGYSEDECKQYKVVVYSNTIQSIIAIIRAMGRLKIDFGEAARADDARQLFVLAGSAEEGVMTPELAGVIKRLWRDGGVQACFSRSREYQLNDSASYYLNDLDRISQSNYIPTQQDVLRTRVKTTGIVETHFTFKDLYFKMFDVGGQRSERKKWIHCFEGVTAIIFCVALSDYDLVLAEDEEMNRMHESMKLFDSICNNKWFTETSIILFLNKKDLFEEKIKRSPLTICYPEYTGSNTYEEAAAYIQCQFEDLNRRKDTAEIYTHFTCATDTKNVQFVFDAVTDVIIKNNLKECGLY [chain 1 K317A] | 590 |
| chain 1 MGCTLSAEDKAAVERSKMIDRNLREDGEKAAKEVKLLLLGAGESGKSTIVKQMKIIHEDGYSEDECKQYKVVVYSNTIQSIIAIIRAMGRLKIDFGEAARADDARQLFVLAGSAEEGVMTPELAGVIKRLWRDGGVQACFSRSREYQLNDSASYYLNDLDRISQSNYIPTQQDVLRTRVKTTGIVETHFTFKDLYFKMFDVGGQRSERKKWIHCFEGVTAIIFCVALSDYDLVLAEDEEMNRMHESMKLFDSICNNKWFTETSIILFLNKKDLFEEKIKRSPLTICYPEYTGSNTYEEAAAYIQCQFEDLNRRKDTWEIYTHFTCATDTKNVQFVFDAVTDVIIKNNLKECGLY [chain 1 K317W] | 510 |
